Laboratory results published in patent US12102667B2, “Polypeptides and antibiotics against gram-negative bacterium comprising the same” (priority 2021, dated 2024).

Legend:
[1] = system: Salmonella enteritidis; assay: MIC, broth microdilution; assay type: cell-based
Protocol: (§1) The MIC of the LNT113 or antibiotic was determined using modification of the broth microdilution method in a 96-well, round bottom, microplate according to the previously described method (Heselpoth et al., 2019). Exponentially grown cells were diluted to a concentration of 10^6 CFU/ml in a CAA medium, and then cultured with recombinant LNT113 (1-64 μg/ml) or antibiotics at 35° C. for 20 hours. […] The MBC was defined as the lowest concentration of the antibacterial agent with no growth on a plate. All analyses were performed in duplicate.

[2] = system: Salmonella typhimurium; assay: MIC, broth microdilution; assay type: cell-based
Protocol: as §1

[3] = system: A. baumannii; assay: MIC, broth microdilution; assay type: cell-based, Acinetobacter baumannii
Protocol: as §1

[4] = system: K. pneumoniae; assay: MIC, broth microdilution; assay type: cell-based, Klebsiella pneumoniae
Protocol: as §1

[5] = system: E. coli; assay: Antibacterial activity analysis (colony count after 2 hours in buffer); assay type: cell-based, Escherichia coli
Protocol: The antibacterial activity of the purified protein was tested for E. coli and various K. pneumoniae strains. The bacterium were grown to an exponential phase (OD600=0.5) and harvested by centrifugation at 12,000×g for 3 minutes. Then, the pellets were washed with reaction buffer solution (20 mM Tris-HCl, pH 7.5) and diluted to about 10^6 cells/ml in the buffer solution. Then, 100 μl bacterial suspension was mixed with the purified endolysin of 100 μl in the reaction buffer solution and incubated at 37° C. for 2 hours. Finally, the mixture was diluted with PBS and loaded on an LB plate. After culturing at 37° C. overnight, the bacterial colonies were counted. All the analysis was performed in triplicate.
The same reaction was performed for the selected subject bacterium in 20 mM HEPES-NaOH, 150 mM NaCl [pH 7.4], and the unique antibacterial activity of Tris and dependence of endolysin for turgor pressure were excluded (FIG. 10a and FIG. 10b). […] The bacterial cells grown geometrically were cultured with 2 μM endolysin in low tonicity buffers (20 mM Tris-HCl, pH 7.5 or 20 mM HEPES, pH 7.5) or high tonicity buffers (buffer solution comprising 150 mM NaCl) at 37° C. for 2 hours. The cells treated with storage buffer solution (20 mM Tris-HCl, pH 7.5, 150 mM NaCl buffer solution (pH 7.5)) were used as a negative control group. The dotted line represents the detection limit (1 Log CFU/ml).
For this, endolysin EC340 at a concentration of 2 μM and each test bacterium were added to reaction buffer (20 mM Tris-Cl, pH 7.5) so that the final concentration was to be 200 μl, and were left at 37° C. for 2 hours. After 2 hours, the number of colonies of Acinetobacter baumannii, Pseudomonas aeruginosa and Escherichia coli was confirmed, and the result was shown in FIG. 3.

[6] = system: K. acrogenes; assay: MIC, broth microdilution; assay type: cell-based, Klebsiella aerogenes
Protocol: as §1

[7] = system: E. coli; assay: MIC and MBC, broth microdilution in CAA medium; assay type: cell-based, Escherichia coli
Protocol: as §1

[8] = system: E. cloacae; assay: MIC, broth microdilution; assay type: cell-based, Enterobacter cloacae
Protocol: as §1

B1: LNT113: fusion polypeptide: Cecropin A, (GGGGS)3 linker, mutant endolysin mtEC340; recombinant form with C-terminal His tag (protein)
chain: MKWKLFKKIEKVGQNIRDGIIKAGPAVAVVGQATQIAKGGGGSGGGGSGGGGSVSRNISNNGIKFTAAFEGFRGTAYRATPNEKYLTIGYGSYGPHVEPGKTITPGQGLLLLNRDMAKAVAAVDAVAHHSLTQSQFDAVCDLVYNAGAGVIAAATGTGKALRSGDVATLRAKLALFINQNGKPLLGLRRRTAGRLALFDGKPWQEAEAIGRAVKG
modifications: synthetic_Met+Cecropin A+GGGGS3 linker+mtEC340
notes: fusion polypeptide: Cecropin A, (GGGGS)3 linker, mutant endolysin mtEC340; recombinant form with C-terminal His tag
MIC [1]: > 64 µg/mL | MIC [2]: > 64 µg/mL | MIC ([3]; A. baumannii ATCC (first ATCC line, number not given)): 8 µg/mL | MIC ([3]; A. baumannii ATCC (second ATCC line, number not given)): 16 µg/mL | MIC ([3]; A. baumannii CCARM): 8 µg/mL | MIC ([3]; A. baumannii F4): 4 µg/mL | MIC ([3]; A. baumannii F65): 8 µg/mL | MIC ([3]; A. baumannii F66): 8 µg/mL | MIC ([3]; A. baumannii F67): 8 µg/mL | MIC ([4]; K. pneumoniae ATCC 700603): 16 µg/mL | MIC ([4]; K. pneumoniae CCARK 10143): 4 µg/mL | MIC ([4]; K. pneumoniae F144): 16 µg/mL | MIC ([4]; K. pneumoniae Fil8): 16 µg/mL | MIC ([4]; K. pneumoniae KCTO 2208): 8 µg/mL | MIC ([4]; K. pneumoniae P1O4): 16 µg/mL | antibacterial activity (number of bacterium) ([5]; E. coli ATCC8739, ATCC25922, CCARM1A746, CCARM1B684, 2 μM, 2 hours, Tris-HCl pH 7.5): more excellent antibacterial activity | effect of adding NaCl on antibacterial activity ([5]; E. coli ATCC 8739, 2 μM, Tris or Hepes buffer with 150 mM NaCl): negative effect of salt presence was significantly reduced | dose and time dependence of antibacterial activity ([5]; E. coli ATCC 8739, 0.1-2.7 μM, 0.5 μM over time): antibacterial activity according to dose and time | antibacterial activity compared to Cecropin A and/or mtEC340 ([5]; E. coli ATCC8739, final concentration of 0.5 mM): enhanced antibacterial activity | increase in activity compared to mtEC340 ([5]; E. coli strains, 2 μM, 2 hours): ≤ 4 log | viable bacterial cells after culturing for 2 hours ([5]; all tested E. coli strains, 2 μM): No viable bacterial cells were detected | amount of bacterial cells after treatment ([5]; colistin-resistant E. coli FORC81, 2 μM, 2 hours): below the detection limit | MIC ([6]; K. acrogenes CCARM 16006): 16 µg/mL | MIC ([6]; K. acrogenes CCARM 16008): 8 µg/mL | MIC ([6]; K. acrogenes CCARM 16010): 8 µg/mL | MBC ([7]; E. coli ATCC 8739): 8 µg/mL | MIC ([7]; E. coli ATCC 8739): 8 µg/mL | MBC ([7]; E. coli ATCC 25922): 64 µg/mL | MIC ([7]; E. coli ATCC 25922): 64 µg/mL | MBC ([7]; E. coli ATCC 51739): 8 µg/mL | MIC ([7]; E. coli ATCC 51739): 8 µg/mL | MBC ([7]; E. coli CCARM 1A746): 4 µg/mL | MIC ([7]; E. coli CCARM 1A746): 4 µg/mL | MBC ([7]; E. coli CCARM 1G490): 16 µg/mL | MIC ([7]; E. coli CCARM 1G490): 16 µg/mL | MBC ([7]; E. coli ECOR 1): 8 µg/mL | MIC ([7]; E. coli ECOR 1): 8 µg/mL | MBC ([7]; E. coli ECOR 2): 8 µg/mL | MIC ([7]; E. coli ECOR 2): 8 µg/mL | MBC ([7]; E. coli ECOR 9): 4 µg/mL | MIC ([7]; E. coli ECOR 9): 4 µg/mL | MBC ([7]; E. coli ECOR 15): 32 µg/mL | MIC ([7]; E. coli ECOR 15): 32 µg/mL | MBC ([7]; E. coli ECOR 35): 16 µg/mL | MIC ([7]; E. coli ECOR 35): 16 µg/mL | MBC ([7]; E. coli ECOR 36): >64 µg/mL | MIC ([7]; E. coli ECOR 36): >64 µg/mL | MBC ([7]; E. coli ECOR 43): 16 µg/mL | MIC ([7]; E. coli ECOR 43): 16 µg/mL | MBC ([7]; E. coli ECOR 45): 4 µg/mL | MIC ([7]; E. coli ECOR 45): 4 µg/mL | MBC ([7]; E. coli ECOR 52): >64 µg/mL | MIC ([7]; E. coli ECOR 52): 64 µg/mL | MBC ([7]; E. coli ECOR 69): >64 µg/mL | MIC ([7]; E. coli ECOR 69): >64 µg/mL | MBC ([7]; E. coli F485): 4 µg/mL | MIC ([7]; E. coli F485): 4 µg/mL | MBC ([7]; E. coli F524): 8 µg/mL | MIC ([7]; E. coli F524): 8 µg/mL | MBC ([7]; E. coli F576): 4 µg/mL | MIC ([7]; E. coli F576): 4 µg/mL | MBC ([7]; E. coli F716): >64 µg/mL | MIC ([7]; E. coli F716): >64 µg/mL | MBC ([7]; E. coli F852): 16 µg/mL | MIC ([7]; E. coli F852): 8 µg/mL | MBC ([7]; E. coli FORC81): 8 µg/mL | MIC ([7]; E. coli FORC81): 8 µg/mL | MBC ([7]; E. coli UPEC 90): 64 µg/mL | MIC ([7]; E. coli UPEC 90): 64 µg/mL | MBC ([7]; E. coli UPEC 3038): 16 µg/mL | MIC ([7]; E. coli UPEC 3038): 16 µg/mL | MBC ([7]; E. coli UPEC 3042): 16 µg/mL | MIC ([7]; E. coli UPEC 3042): 16 µg/mL | MBC ([7]; E. coli UPEC 3051): 16 µg/mL | MIC ([7]; E. coli UPEC 3051): 16 µg/mL | MBC ([7]; E. coli UPEC 3150): 8 µg/mL | MIC ([7]; E. coli UPEC 3150): 8 µg/mL | MBC ([7]; E. coli UPEC 3151): 64 µg/mL | MIC ([7]; E. coli UPEC 3151): 64 µg/mL | MBC ([7]; E. coli UPEC 3163): 16 µg/mL | MIC ([7]; E. coli UPEC 3163): 16 µg/mL | MBC ([7]; E. coli UPEC 3164): 32 µg/mL | MIC ([7]; E. coli UPEC 3164): 32 µg/mL | MBC ([7]; E. coli UPEC 3168): 8 µg/mL | MIC ([7]; E. coli UPEC 3168): 8 µg/mL | MBC ([7]; E. coli UPEC 3181): 8 µg/mL | MIC ([7]; E. coli UPEC 3181): 8 µg/mL | MBC compared with MIC ([7]; various E. coli strains): same as MIC | MIC in most of the strains ([7]; various E. coli strains of Table 2): 4 to 64 µg/mL | MIC ([8]; E. cloacae ATCC 13047): 16 µg/mL | MIC ([8]; E. cloacae CCARM 0252): 4 µg/mL | MIC ([8]; E. cloacae CCARM 16003): 8 µg/mL
